In article PMC10349104:
“And” between values parts separate entries of the source, which are not always exact repeats. Equal entries are not always repeated. Where two headings read alike, the source gives them in different places.

Columns and labels:
[1] = target: EVA-A(C8) (Amblyomma americanum); test: SPR
[2] = target: EVA-A(DN) (Amblyomma americanum); test: SPR
[3] = target: EVA-A(L39P) (Amblyomma americanum); test: SPR
[4] = target: EVA-A(Y44A) (Amblyomma americanum); test: SPR
[5] = target: EVA-AAM1001 (Amblyomma americanum); test: SPR
EVA-4, P0C8E9 = target: T1, EVA-4, P0C8E9; test: not stated; Kd of EVA-4 for human chemokines, three readings (source data of Supplementary Fig. 7); method and conditions not told for EVA-4
T1 chain: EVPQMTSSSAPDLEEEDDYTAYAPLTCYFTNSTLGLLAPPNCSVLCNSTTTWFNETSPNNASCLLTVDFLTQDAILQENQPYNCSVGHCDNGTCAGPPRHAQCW

[6] = remark: other sources report otherwise

B1: CCL15 (ligand)
chain: QFTNDAETELMMSKLPLENPVVLNSFHFAADCCTSYISQSIPCSLMKSYFETSSECSKPGVIFLTKKGRQVCAKPSGPGVQDCMKKLKPYSI
modifications: not checked
B1 was tested, and the Kd [1, 6] was 714 nM and 467 nM and 550 nM, the koff [1, 6] was 0.0149 s⁻¹ and 0.0104 s⁻¹ and 0.013 s⁻¹ and the kon [1, 6] was 20800 M⁻¹ s⁻¹ and 22300 M⁻¹ s⁻¹ and 23700 M⁻¹ s⁻¹. For the same binder, the Kd [2, 6] was 35.6 nM and 33.6 nM and 33 nM, the koff [2, 6] was 0.00216 s⁻¹ and 0.00209 s⁻¹ and 0.00218 s⁻¹ and the kon [2, 6] was 60800 M⁻¹ s⁻¹ and 62100 M⁻¹ s⁻¹ and 66000 M⁻¹ s⁻¹. For the same binder, the Kd [3, 6] was 26.9 nM and 23 nM and 29.8 nM, the koff [3, 6] was 0.0026 s⁻¹ and 0.00246 s⁻¹ and 0.00303 s⁻¹ and the kon [3, 6] was 96500 M⁻¹ s⁻¹ and 107000 M⁻¹ s⁻¹ and 101000 M⁻¹ s⁻¹. The Kd [4, 6] was 80.9 nM and 215 nM and 188 nM, the koff [4, 6] was 0.00852 s⁻¹ and 0.0138 s⁻¹ and 0.0129 s⁻¹ and the kon [4, 6] was 105000 M⁻¹ s⁻¹ and 64300 M⁻¹ s⁻¹ and 68500 M⁻¹ s⁻¹. For the same binder, the Kd [5, 6] was 1.7 nM and 1.77 nM and 1.85 nM, the koff [5, 6] was 0.000308 s⁻¹ and 0.000311 s⁻¹ and 0.000314 s⁻¹ and the kon [5, 6] was 182000 M⁻¹ s⁻¹ and 175000 M⁻¹ s⁻¹ and 170000 M⁻¹ s⁻¹. For the same binder, the Kd (EVA-4, P0C8E9) was 287 nM and 216 nM and 218 nM.

B2: CCL4, P13236 24-92 (ligand)
chain: APMGSDPPTACCFSYTARKLPRNFVVDYYETSSLCSQPAVVFQTKRSKQVCADPSESWVQEYVYDLELN
In the case of B2, the Kd (EVA-4, P0C8E9; [6]) is reported as 212 nM and 126 nM and 137 nM.

B3: CCL14 (ligand)
chain: TKTESSSRGPYHPSECCFTYTTYKIPRQRIMDYYETNSQCSKPGIVFITKRGHSVCTNPSDKWVQDYIKDMKEN
modifications: not checked
B3 was tested, and the Kd [1] was 1.09 nM and 1.16 nM and 1.66 nM, the koff [1] was 0.000525 s⁻¹ and 0.00045 s⁻¹ and 0.000476 s⁻¹ and the kon [1] was 482000 M⁻¹ s⁻¹ and 389000 M⁻¹ s⁻¹ and 288000 M⁻¹ s⁻¹. For the same binder, the Kd [2] was 0.12 nM and 0.109 nM and 0.11 nM, the koff [2] was 8.54e-05 s⁻¹ and 7.6e-05 s⁻¹ and 7.69e-05 s⁻¹ and the kon [2] was 714000 1/(M s) and 697000 1/(M s) (2×). For the same binder, the Kd [3] was 0.0403 nM and 0.0431 nM and 0.0505 nM, the Kd [4] was 0.12 nM and 0.125 nM and 0.0725 nM and the koff [4] was 6.21e-05 s⁻¹ and 5.76e-05 s⁻¹ and 3.35e-05 s⁻¹. The kon [4] was 519000 M⁻¹ s⁻¹ and 462000 M⁻¹ s⁻¹, the Kd [5] was 0.0551 nM and 0.0372 nM and 0.0569 nM and the koff [5] was 6.24e-05 s⁻¹ and 5.52e-05 s⁻¹ and 6.41e-05 s⁻¹. For the same binder, the kon [5] was 1.1e+06 1/(M s) (2×) and 1.5e+06 1/(M s) and the Kd (EVA-4, P0C8E9) was 0.765 nM and 1.17 nM and 1.14 nM.
